# Tests used:
# [1] = co-transfection of WT and mutant, 293T-EmGFP syncytia; settings: glycan lost; control: WT syncytin-2 plus empty vector
# [2] = Western blot of 293T-EmGFP lysates; settings: glycan lost; control: wild type
# [3] = syncytia formation in 293T-EmGFP cells, 36 h; settings: glycan lost; control: wild type
Substance,other: fusogenic activity of co-expressed wild type [1],expression_or_secretion [2],"other: fusogenic activity, other: fusion score (−, +, ++) [3]"
syncytin-2: N133Q,decreases,no change,–
syncytin-2: N220Q,–,no change,no change
syncytin-2: N332Q,–,no change,increases
syncytin-2: N146Q,–,no change,no change
syncytin-2: N247Q,–,no change,no change
syncytin-2: N177Q,–,no change,no change
syncytin-2: N241Q,–,no change,no change
syncytin-2: N443Q,decreases,no change,–

# — PMC4853038
